The source of these data is article PMC9882231 (bioRxiv, 2023).

“And” between values parts separate entries of the source, which are not always exact repeats. Equal values may be shown once.

To fix the notation:
B5: Ndel1^CC (human Ndel1 coiled-coil domain, residues 1-195), as used in Figure 4 (domain or fragment)
chain: MDGEDIPDFSSLKEETAYWKELSLKYKQSFQEARDELVEFQEGSRELEAELEAQLVQAEQRNRDLQADNQRLKYEVEALKEKLEHQYAQSYKQVSVLEDDLSQTRAIKEQLHKYVRELEQANDDLERAKRATIVSLEDFEQRLNQAIERNAFLESELDEKESLLVSVQRLKDEARDLRQELAVRERQQEVTRKSA
B6: Ndl1^CC (Ndl1 coiled-coil domain, residues 2-132) (domain or fragment)
chain: VPNLDLETAIQIISSLETQLSELEGATKEYENDLEQVISKLKSDLLESQQQNKCNKKQITDLEIQVDELENENIQLRNKIETLQLESDRRLERNVLLEHELLDTKEALQKLRVSKEEATSGETRRNTRSLP

Data set [1] deals with yeast dynein complex, wild-type (WT) (S. cerevisiae, UniProt P36022;P40960;Q04949;Q02647, HaloTag or SNAP ligand dye on the tag). Kind of data set: TIRF microscopy microtubule recruitment assay.
Data set [2] addresses yeast dynein^ΔICN complex (S. cerevisiae, UniProt P36022;P40960;Q04949;Q02647, HaloTag or SNAP ligand dye on the tag). Kind of data set: TIRF microscopy microtubule recruitment assay.
Data set [3] has as its target B6. In words: mass photometry.
The data set “mass photometry” deals with the molecule itself. In words: mass photometry.
Data set [4] addresses B5. Kind of data set: mass photometry.

Sequence of yeast dynein complex, wild-type (WT) (P36022 whole entry, chain 1 of 4): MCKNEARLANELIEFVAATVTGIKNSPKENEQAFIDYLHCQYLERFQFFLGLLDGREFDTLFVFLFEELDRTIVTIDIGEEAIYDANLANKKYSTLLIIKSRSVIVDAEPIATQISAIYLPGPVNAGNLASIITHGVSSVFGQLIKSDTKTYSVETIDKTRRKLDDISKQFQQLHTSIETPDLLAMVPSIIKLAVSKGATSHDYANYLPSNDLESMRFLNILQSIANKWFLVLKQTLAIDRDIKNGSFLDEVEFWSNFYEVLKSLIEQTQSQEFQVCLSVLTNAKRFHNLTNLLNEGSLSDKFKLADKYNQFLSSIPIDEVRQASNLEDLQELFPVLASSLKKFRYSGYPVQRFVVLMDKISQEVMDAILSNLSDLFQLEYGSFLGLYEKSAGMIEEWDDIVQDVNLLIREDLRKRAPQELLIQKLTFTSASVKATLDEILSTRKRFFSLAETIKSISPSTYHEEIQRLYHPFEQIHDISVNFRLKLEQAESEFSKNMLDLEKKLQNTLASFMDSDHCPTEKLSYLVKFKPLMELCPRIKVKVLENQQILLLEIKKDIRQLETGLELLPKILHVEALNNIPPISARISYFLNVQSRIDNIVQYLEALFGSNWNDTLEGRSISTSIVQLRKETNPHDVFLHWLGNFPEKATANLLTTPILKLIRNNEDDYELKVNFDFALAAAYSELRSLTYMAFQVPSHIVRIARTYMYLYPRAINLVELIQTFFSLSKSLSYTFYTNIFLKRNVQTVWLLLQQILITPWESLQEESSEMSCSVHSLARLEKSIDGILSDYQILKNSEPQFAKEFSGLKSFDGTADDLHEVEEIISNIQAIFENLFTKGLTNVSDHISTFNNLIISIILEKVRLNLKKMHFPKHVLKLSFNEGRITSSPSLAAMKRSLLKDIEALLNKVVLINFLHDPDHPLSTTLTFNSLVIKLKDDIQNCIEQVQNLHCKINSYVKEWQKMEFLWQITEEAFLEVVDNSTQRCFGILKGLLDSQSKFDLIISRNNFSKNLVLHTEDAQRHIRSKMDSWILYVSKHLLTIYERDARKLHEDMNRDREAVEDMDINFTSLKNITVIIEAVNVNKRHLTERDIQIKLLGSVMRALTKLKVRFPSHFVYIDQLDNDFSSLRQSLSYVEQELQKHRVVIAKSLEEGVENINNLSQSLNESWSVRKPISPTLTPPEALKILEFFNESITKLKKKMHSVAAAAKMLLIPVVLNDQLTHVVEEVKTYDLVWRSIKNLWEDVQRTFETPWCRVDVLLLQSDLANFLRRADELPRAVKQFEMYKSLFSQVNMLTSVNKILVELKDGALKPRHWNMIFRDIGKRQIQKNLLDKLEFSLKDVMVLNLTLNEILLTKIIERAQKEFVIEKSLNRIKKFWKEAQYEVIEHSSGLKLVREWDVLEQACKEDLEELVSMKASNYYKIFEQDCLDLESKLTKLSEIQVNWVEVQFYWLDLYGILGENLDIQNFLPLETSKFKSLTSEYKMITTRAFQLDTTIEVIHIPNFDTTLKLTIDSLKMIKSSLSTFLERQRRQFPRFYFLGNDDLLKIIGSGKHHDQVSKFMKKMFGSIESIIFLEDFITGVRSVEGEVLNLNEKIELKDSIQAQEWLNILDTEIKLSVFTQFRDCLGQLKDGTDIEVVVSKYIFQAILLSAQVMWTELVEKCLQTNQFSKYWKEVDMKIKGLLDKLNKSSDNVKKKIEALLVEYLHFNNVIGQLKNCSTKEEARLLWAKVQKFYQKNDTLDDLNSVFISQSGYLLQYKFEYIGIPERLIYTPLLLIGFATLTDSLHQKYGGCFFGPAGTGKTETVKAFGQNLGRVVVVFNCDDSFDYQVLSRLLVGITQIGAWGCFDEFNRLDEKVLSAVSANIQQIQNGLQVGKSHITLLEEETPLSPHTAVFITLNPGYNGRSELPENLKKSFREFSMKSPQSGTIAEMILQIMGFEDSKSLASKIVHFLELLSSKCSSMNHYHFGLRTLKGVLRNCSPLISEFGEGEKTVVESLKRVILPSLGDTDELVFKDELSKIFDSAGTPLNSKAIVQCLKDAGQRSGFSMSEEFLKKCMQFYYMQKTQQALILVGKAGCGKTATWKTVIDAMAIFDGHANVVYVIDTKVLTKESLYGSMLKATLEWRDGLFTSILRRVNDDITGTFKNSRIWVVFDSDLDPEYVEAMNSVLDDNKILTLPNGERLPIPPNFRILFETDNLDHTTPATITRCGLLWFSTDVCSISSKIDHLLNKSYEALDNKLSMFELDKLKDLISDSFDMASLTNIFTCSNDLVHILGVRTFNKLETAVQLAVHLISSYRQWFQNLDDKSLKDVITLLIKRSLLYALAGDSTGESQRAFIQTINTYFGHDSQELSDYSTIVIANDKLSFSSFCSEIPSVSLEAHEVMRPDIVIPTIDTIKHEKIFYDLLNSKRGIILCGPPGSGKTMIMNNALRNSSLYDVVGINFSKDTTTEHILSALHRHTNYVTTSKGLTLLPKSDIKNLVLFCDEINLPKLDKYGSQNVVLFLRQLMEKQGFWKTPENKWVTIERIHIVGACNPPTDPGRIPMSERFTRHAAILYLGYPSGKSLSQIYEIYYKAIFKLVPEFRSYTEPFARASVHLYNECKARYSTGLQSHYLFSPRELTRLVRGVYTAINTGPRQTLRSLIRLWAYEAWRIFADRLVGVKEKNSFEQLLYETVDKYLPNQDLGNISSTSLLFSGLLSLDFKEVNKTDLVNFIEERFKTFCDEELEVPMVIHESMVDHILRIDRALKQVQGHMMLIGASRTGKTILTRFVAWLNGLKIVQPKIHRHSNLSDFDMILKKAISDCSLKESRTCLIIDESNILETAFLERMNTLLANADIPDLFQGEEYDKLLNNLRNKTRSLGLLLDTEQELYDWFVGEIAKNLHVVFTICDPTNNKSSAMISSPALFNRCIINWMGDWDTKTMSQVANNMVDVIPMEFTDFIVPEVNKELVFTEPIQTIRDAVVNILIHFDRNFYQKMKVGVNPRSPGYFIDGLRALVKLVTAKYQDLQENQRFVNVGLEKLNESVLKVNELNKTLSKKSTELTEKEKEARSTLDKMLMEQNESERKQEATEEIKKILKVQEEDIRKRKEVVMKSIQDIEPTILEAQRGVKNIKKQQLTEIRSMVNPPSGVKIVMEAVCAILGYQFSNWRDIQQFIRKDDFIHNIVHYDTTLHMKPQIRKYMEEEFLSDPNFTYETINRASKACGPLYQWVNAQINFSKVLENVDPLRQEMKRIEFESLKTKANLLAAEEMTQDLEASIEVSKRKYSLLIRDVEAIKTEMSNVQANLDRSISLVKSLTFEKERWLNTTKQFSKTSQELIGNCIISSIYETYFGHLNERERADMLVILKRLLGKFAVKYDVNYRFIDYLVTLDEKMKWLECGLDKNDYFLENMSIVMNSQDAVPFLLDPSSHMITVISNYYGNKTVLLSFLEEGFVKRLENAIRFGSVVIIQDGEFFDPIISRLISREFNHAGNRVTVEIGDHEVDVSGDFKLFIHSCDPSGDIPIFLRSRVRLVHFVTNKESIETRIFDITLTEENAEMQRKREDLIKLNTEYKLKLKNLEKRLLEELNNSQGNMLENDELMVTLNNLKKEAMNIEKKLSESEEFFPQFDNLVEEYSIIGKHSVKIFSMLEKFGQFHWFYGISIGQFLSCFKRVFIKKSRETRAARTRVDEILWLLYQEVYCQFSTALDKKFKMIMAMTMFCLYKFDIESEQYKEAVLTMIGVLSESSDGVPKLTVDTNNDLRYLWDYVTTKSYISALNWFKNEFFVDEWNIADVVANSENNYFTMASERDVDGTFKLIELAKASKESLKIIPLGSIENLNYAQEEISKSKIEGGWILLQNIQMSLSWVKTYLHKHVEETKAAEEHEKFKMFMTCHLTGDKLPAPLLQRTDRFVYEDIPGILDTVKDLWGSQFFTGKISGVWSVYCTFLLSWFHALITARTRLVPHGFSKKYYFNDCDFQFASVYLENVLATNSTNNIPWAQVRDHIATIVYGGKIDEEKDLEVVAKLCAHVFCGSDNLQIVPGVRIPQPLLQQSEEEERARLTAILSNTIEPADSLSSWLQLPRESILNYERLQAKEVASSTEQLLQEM
Sequence of yeast dynein complex, wild-type (WT) (P40960 whole entry, chain 2 of 4): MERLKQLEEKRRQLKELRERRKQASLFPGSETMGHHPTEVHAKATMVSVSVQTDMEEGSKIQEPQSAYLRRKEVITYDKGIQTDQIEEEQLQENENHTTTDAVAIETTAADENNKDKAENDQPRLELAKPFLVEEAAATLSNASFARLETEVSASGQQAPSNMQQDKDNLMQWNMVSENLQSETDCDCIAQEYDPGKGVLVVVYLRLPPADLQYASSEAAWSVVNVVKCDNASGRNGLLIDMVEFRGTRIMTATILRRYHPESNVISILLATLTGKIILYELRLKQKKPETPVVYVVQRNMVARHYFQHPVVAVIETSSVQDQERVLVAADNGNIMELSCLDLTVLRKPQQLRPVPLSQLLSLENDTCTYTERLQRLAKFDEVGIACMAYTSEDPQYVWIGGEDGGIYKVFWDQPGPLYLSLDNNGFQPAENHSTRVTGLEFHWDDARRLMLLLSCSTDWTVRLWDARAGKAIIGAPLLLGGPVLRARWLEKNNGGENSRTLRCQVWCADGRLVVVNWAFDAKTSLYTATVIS
Sequence of yeast dynein complex, wild-type (WT) (Q04949 whole entry, chain 3 of 4): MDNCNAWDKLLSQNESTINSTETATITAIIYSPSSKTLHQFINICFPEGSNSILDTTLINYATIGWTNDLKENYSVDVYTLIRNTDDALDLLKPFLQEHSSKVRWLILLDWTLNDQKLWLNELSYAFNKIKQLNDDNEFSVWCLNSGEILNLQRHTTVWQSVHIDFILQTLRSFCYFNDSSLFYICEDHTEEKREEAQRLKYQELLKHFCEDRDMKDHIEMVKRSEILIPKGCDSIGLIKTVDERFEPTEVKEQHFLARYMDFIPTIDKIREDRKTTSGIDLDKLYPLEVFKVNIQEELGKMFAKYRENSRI
Sequence of yeast dynein complex, wild-type (WT) (Q02647 whole entry, chain 4 of 4): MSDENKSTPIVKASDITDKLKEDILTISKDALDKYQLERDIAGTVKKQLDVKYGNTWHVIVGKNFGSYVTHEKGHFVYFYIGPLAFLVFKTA

B1: Nip100^CC1 (Nip100 coiled-coil, residues 97-377) with eGFP (domain or fragment)
chain: EHSLLNGNAAQETIKNLQVKCESLASKLNKIKIENHELKTSVEKLSTNETVLLSKISRLDKLVKELKVENGNMKTHLDNFNHLLDASDSVMAPDLDKGTLLERSHLLQGLLDQTKLSYDKAMKVQEDLLEENTQLLEENAVLSKKISDLGLQLQQTNNTIGDLALQIEAQSKSSNIVDKLTNDNILLTSNIKALNNELEELQAKEKLDENLRITYEQLEQELRLQLSNLQSALENEKEIAGTYIEENSRLKATLESIEAKTSHKFQSLELKVNTLQEELYQ
For B1, the binding result in data set [1] is listed as “binds”.

B2: Pac1, full-length, with C-terminal FLAG-SNAPf (natural protein)
chain: MTNWQQQLPLTDTQKNELDKSVLRYLNWNYKQTVRHEHAQDYESVRHAIVTLSGFLLQESVDRQEFISNNDTSNESMVDIDELLLPKKWNSIVRLQKKIIELEQNTETLVSQIKDLNTQVSELAQFKPTTSNGTSAHNVLKWIPRNLPSCLINVESSVTSVKLHPNLPIVFVATDHGKLYAFDLFNYTIPLASLQSHTKAITSMDVLFTNYTNSSKKNYLVIVTASKDLQIHVFKWVSEECKFQQIRSLLGHEHIVSAVKIWQKNNDVHIASCSRDQTVKIWDFHNGWSLKTFQPHSQWVRSIDVLGDYIISGSHDTTLRLTHWPSGNGLSVGTGHEFPIEKVKFIHFIEDSPEIRFRTPSTDRYKNWGMQYCVSASRDRTIKIWEIPLPTLMAHRAPIPNPTDSNFRCVLTLKGHLSWVRDISIRGQYLFSCADDKSVRCWDLNTGQCLHVWEKLHTGFVNCLDLDVDFDSNVTPRQMMVTGGLDCKSNVFMR
modifications: SNAP-tag ligand dye on the SNAPf tag where labelled
In the case of B2, the binding result in data set [2] and in data set [1] was “binds” throughout. For the same molecule, the “stoichiometry N” value is 1 and 2 Pac1:Ndl1 in data set [3]; 2 in “mass photometry”.

B3: Ndl1, full-length, with C-terminal FLAG-SNAPf (natural protein)
chain: MVPNLDLETAIQIISSLETQLSELEGATKEYENDLEQVISKLKSDLLESQQQNKCNKKQITDLEIQVDELENENIQLRNKIETLQLESDRRLERNVLLEHELLDTKEALQKLRVSKEEATSGETRRNTRSLPSQNKKMKLFKDTIKVSTTSSTLYLQNMAKTNNAARSHCNIPNTQITQSTVIATTSSV
modifications: JFX554 or JFX650 SNAP-tag ligand on the SNAPf tag
As for B3, the binding result in data set [1] is “binds”.

B4: LIS1, wild-type (natural protein)
chain: MVLSQRQRDELNRAIADYLRSNGYEEAYSVFKKEAELDVNEELDKKYAGLLEKKWTSVIRLQKKVMELESKLNEAKEEFTSGGPLGQKRDPKEWIPRPPEKYALSGHRSPVTRVIFHPVFSVMVSASEDATIKVWDYETGDFERTLKGHTDSVQDISFDHSGKLLASCSADMTIKLWDFQGFECIRTMHGHDHNVSSVAIMPNGDHIVSASRDKTIKMWEVQTGYCVKTFTGHREWVRMVRPNQDGTLIASCSNDQTVRVWVVATKECKAELREHEHVVECISWAPESSYSSISEATGSETKKSGKPGPFLLSGSRDKTIKMWDVSTGMCLMTLVGHDNWVRGVLFHSGGKFILSCADDKTLRVWDYKNKRCMKTLNAHEHFVTSLDFHKTAPYVVTGSVDQTVKVWECR
For the molecule B4, in data set [4], the “stoichiometry N” value is 1.

B5: in “mass photometry”, the “stoichiometry N” value turned out to be 2.

For B6, the binding result in data set [1] is on record as “binds”. For the same molecule, the “stoichiometry N” value in the data set “mass photometry” was 2.
